Test results from patent US20200055919A1 (ACCELERON PHARMA, published 2020).
Positions count from the first letter of the chain named. In names and notes the source's numbering stands.

Tests used:
activin A [1] = target: T1, activin A (UniProt P08476 311-426); experiment: SPR (Biacore), Fc fusion captured by anti-Fc antibody, ligand injected, 37 C
T1 sequence (looked up): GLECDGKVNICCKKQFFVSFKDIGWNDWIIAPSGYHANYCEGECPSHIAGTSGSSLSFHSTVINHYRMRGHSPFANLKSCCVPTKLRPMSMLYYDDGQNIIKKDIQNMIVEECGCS
Description: (§1) A Biacore™-based binding assay was used to compare the ligand binding kinetics of an ActRIIB-Fc:ActRIIB(L79E)-Fc heterodimer with those of unmodified ActRIIB-Fc homodimer. Fusion proteins were captured onto the system using an anti-Fc antibody. Ligands were then injected and allowed to flow over the captured receptor protein at 37° C. Results are summarized in the table below, in which ligand off-rates (kd) most indicative of effective ligand traps are denoted in bold.

BMP10 [2] = target: T2, BMP10 (UniProt O95393 317-424); experiment: as above
T2 sequence (looked up): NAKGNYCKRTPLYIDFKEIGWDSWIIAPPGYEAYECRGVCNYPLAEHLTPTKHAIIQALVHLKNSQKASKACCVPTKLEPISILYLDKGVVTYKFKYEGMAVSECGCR
Description: as §1

GDF11 = target: T3, GDF11 (UniProt O95390 299-407); experiment: as above
T3 construct: also called BMP11
T3 sequence (looked up): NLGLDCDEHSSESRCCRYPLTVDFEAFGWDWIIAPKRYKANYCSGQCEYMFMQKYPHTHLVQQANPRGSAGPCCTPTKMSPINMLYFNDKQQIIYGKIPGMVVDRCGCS
Description: as §1

BMP6 = target: T4, BMP6 (UniProt P22004 382-513, limits assumed); experiment: as above
T4 sequence (looked up): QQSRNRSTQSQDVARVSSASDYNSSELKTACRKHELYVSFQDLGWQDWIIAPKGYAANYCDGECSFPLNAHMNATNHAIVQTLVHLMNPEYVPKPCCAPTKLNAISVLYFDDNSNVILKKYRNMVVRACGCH
Description: as §1

BMP9 = target: T5, BMP9 (UniProt Q9UK05 320-429); experiment: as above
T5 sequence (looked up): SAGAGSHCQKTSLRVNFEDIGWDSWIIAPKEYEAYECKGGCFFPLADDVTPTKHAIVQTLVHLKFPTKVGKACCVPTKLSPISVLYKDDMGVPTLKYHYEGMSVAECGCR
Description: as §1

GDF8 = target: T6, GDF8 (UniProt O14793 267-375); experiment: as above
T6 construct: also called myostatin
T6 sequence (looked up): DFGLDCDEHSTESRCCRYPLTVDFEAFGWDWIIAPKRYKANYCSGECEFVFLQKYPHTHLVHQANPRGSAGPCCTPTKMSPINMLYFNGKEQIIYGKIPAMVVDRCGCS
Description: as §1

activin B = target: T7, activin B (UniProt P09529 293-407); experiment: as above
T7 sequence (looked up): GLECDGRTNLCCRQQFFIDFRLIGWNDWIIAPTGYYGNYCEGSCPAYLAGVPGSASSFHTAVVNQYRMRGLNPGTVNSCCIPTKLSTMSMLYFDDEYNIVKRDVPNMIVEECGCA
Description: as §1

GDF3 = target: T8, GDF3 (UniProt Q9NR23 251-364); experiment: as above
T8 sequence (looked up): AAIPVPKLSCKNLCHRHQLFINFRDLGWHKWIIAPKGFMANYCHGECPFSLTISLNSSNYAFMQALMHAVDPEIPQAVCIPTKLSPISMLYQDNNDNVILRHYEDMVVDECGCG
Description: as §1

activin A [3] = target: T1, activin A; experiment: SPR (Biacore), 37 C
Description: as §1

BMP10 [4] = target: T2, BMP10; experiment: SPR (Biacore), 37 C
Description: as §1

- Kd (activin A [1]): 0.17 nM
- koff (activin A [1]): 0.0015 s⁻¹
- kon (activin A [1]): 8.8e+06 M⁻¹ s⁻¹
- Kd (BMP10 [2]): 0.042 nM
- koff (BMP10 [2]): 0.002 s⁻¹
- kon (BMP10 [2]): 4.8e+07 M⁻¹ s⁻¹
- Kd (GDF11): 0.009 nM
- koff (GDF11): 0.00036 s⁻¹
- kon (GDF11): 4e+07 M⁻¹ s⁻¹
- Kd (BMP6): 0.056 nM
- koff (BMP6): 0.018 s⁻¹
- kon (BMP6): 3.3e+08 M⁻¹ s⁻¹
- Kd (BMP9): > 2.8 nM
- Kd (GDF8): 0.15 nM
- koff (GDF8): 0.0005 s⁻¹
- kon (GDF8): 3.4e+06 M⁻¹ s⁻¹
- Kd (activin B): 0.025 nM
- koff (activin B): 0.00021 s⁻¹
- kon (activin B): 8.3e+06 M⁻¹ s⁻¹
- Kd (GDF3): 10 nM
- koff (GDF3): 0.0059 s⁻¹
- kon (GDF3): 580000 M⁻¹ s⁻¹
- fold faster off-rate compared to ActRIIB-Fc homodimer (activin A [3]): ~10 fold
- fold faster off-rate compared to ActRIIB-Fc homodimer (BMP10 [4]): ~10 fold
B1: ActRIIB-Fc:ActRIIB(L79E)-Fc heterodimer (Fc fusion)
chain 1: GRGEAETRECIYYNANWELERTNQSGLERCEGEQDKRLHCYASWRNSSGTIELVKKGCWEDDFNCYDRQECVATEENPQVYFCCCEGNFCNERFTHLPEAGGPEVTYEPPPTAPT
chain 2: B1 chain 1 with E60L
notes: also called ActRIIB-Fc:ActRIIB(L79E)-Fc heteromer; not shown: linker and engineered G1Fc; linker and complementary engineered G1Fc
